Experimental data reported in patent publication US20200318093A1.

Columns and labels:
[1] = molecular target: casein sodium ("MIPRODAN", Nippon Shinyaku); assay: cell-based or functional assay
[2] = molecular target: bovine-derived alkaline gelatin (Sigma)
[3] = molecular target: casein sodium ("MIPRODAN", Nippon Shinyaku)
[4] = molecular target: fish-derived gelatin (Nippi)
[5] = molecular target: milk whey protein ("BiPro", Davisco)
[6] = molecular target: T1, ovalbumin (Sigma), P01012
T1 chain: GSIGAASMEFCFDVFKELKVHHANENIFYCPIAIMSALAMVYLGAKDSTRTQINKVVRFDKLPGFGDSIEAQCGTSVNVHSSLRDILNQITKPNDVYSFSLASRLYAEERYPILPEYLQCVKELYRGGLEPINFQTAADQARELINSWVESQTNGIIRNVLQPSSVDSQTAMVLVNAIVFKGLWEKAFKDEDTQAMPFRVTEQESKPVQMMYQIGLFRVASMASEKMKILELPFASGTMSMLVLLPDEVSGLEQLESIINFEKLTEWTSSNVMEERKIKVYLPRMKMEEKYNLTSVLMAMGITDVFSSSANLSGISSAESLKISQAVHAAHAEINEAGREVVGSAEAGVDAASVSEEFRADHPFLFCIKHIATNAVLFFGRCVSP

[7] = molecular target: porcine-derived acidic gelatin (Sigma)
[8] = molecular target: skim milk powder (Yotsuba Milk Products, low heat type)
[9] = molecular target: casein sodium ("MIPRODAN", Nippon Shinyaku); assay: cell-based or functional assay; remark: listed apart in the source

protein asparaginase of Leifsonia xyli AJ111071 (NITE P-01649) (enzyme)
released ammonia (3 h reaction with culture supernatant, control subtracted) [1]: 0.289 mM

B1: protein asparaginase of Leifsonia xyli AJ111071 (NITE P-01649) (protein)
chain: LPVRRRIALTVAAALIPVVALTTAPAALAAPAPDPVVASGSDWAVTTSPGGYLVTLDLDEPLPMVDDAPTLVVDGEPIGLATESADGLTLGVVTTDPAVASASSVTKGWSSGADDKAAETPEAPATPAVPENTTLTEQLKSFAQLVAVEDPADLGSYTVTEAEYDFGDQAVPLAAIGGIRGELTGKMYLTNATGARPTVVLLHGRHTSCSGTGANPLRWPCGPTQMNIRSYLGYEGTARALASRGYNVLSIAANAVNSNDNQLALDYGAQARGRLVLDTLGMLAKATAGDAVAYDDITTATDTVPSTTTTRTLDEALLRATTRADQPAAASGITAASLKGRFDLGHVGIMGHSRGGEGVVSAATLNQALAKPYGIESVLPLAPVDFGRMTLPDVPTAVFLPYCDGDVSNQQGQHFIDDSRHAFDDDVLRSAVWVMGANHNFFNTVWTPGLYPAATGDDWRTTDTTSTCATTNPTRMTAAQQYQVGVSYMTGFFRLTMGGETRFQSLFDGSVKPSTASTAYADVRTMATQPASKTSLVNDFTETSSLVRVSGGATAAVCTNLTGRTVPQSLPFCATTKASAQVPHWTPGSFAPNVPEFPVTRFLWTGASTTDPAVPSTGELRVTVPAKDRDASRHSQLTLKTAPDEAVQTGTDFRITVVDGAGKTFATTASAVNPLAVNRMPGGTNTTLNKVVLQQLTIPTSTITGIDLTDVREVRLTAAIGADGTGTGGVYLSDLAFDTPSVGTAVAQTRTTVNVAPTTVEEGDGPGTADVAVYLNRAEKSAVTAYVSVIGSATAAVGIGMEKVAFAPGETCKAVTVPTLGNTATSAAPSSAFKVSVTNSTNAVMGASAFANLTVREDDGVTGAAPALAPVGAQGDVCTELAAATTPVPLETSAEDVAPGGSFTLRATGYRAGETVAFRYGATDLGTQVAATDGTASVVVTVPEDADLGPAEATASGSGSGRAATVSVSVLAPTETTVTVTPAKPTAGQ
N-terminus sequence of the insulin B chain after 8 h reaction (protein sequencer) (Insulin B chain (Sigma)): asparagine of the third residue from the N-terminus of the insulin B chain was converted into aspartic acid by deamidation

B2: protein asparaginase of Luteimicrobium album AJ111072 (NITE P-01650) (protein)
chain: AVTADDGSTPGTAAYLEDDYDFGDQAVPLANIGGIRGEMTGRIYLPTTAGAHPTVILLHGRHSSCTVPTGGGSVSNPNRWPCIAPQVNIPSYKGYESTAQNLATHGYAVVSISANAINANDNQLAPDYGAQARGQLVLDTLAMLRKANAGEPVSFHDAATDRTVDLASALAVSTEAEDLGSAPTSATNPGDAITPADLVGAFDLDDVGLMGHSRGGEGVVSAVNLNQKLAKPFGIKSVLPLAPVDFGRETAADTNMLVILPYCDGDVSNQQGQHFSDDSRYAYDDDSLRSTLWVMGADHNFFNSVWTPGKYPLSTSDDWGATSTDAVCGPLAPTNVRLSADDQYDVGVAVMSAWFRLTLGGEDQFLPLFDGSADPTLTSVPSAKLWSTATAPATKRADIEAFTANTSRVRVYGSATESVCASAGGRTLPQDAQPCATASALRSTSAMPHWTPASFAPNVPASPMGRFLWTSVSGSTAGSIRVTVPAAARDASEQDALTFKTAPDESVLTGTDLTVTVVDGHGATWSSAVSALNAGAVKRLPISGSTTLNKIVLQQVSVPVSTLAGSIDVSDVREVRFAGATGADGTATGGAYLSDLAFVSSGVGTVAGIASVPTVNVASTVVEEGSSVDEARVAVVLDQPADRTVSAWFTLMGSTADSSNAGLAAQKVTFQPGQTCQAVTVTILGNTVAGAAATTAYKADVSAPDGVIVGAAQFGTFTVREDDALTSGGALAPAVGTQGDVCAEYAARSVVQELTTSGDAVAGSHVTLTGSGYRVGESVAFTDGDAVLGTVLAGADGTAALDWAVPADARVGGHDVTAVGAGSARTAKATVTVRSATTTTLAIAPAAPAVGKAVTLTATVAGPDTAGTVTFADGSTVLGRVAVKDGRAALVVSGGFDAGTHTLTAAFGQTATAEGSVSPAVTFTLVKGKTTTVFVLAATRTTYGTAVAGRIVVGGADGGVATITVGNVVRSVRLDAHGAGSFTVPGTLKPATYRVTASYAGSRTLDTSSARASLTVLKAAPKVTLSAPATARKGATVTVTVKVVGVKGGVRPTGKAVVKLGGKAVKTVSVPSSGVVKVKVRLASAGTAKVTAAYQGSAYYTAASAAAKVKVKVVTK
Amount of generated ammonia (Rice proteins): 0.04 mM
Amount of generated ammonia (Soybean proteins): 0.98 mM
Amount of generated ammonia [2]: 0.73 mM
Amount of generated ammonia [3]: 2.98 mM
Amount of generated ammonia (cornmeal gluten (Sigma)): 0.41 mM
Amount of generated ammonia [4]: 1.27 mM
Amount of generated ammonia [5]: 1.17 mM
Amount of generated ammonia [6]: 0.01 mM
Amount of generated ammonia [7]: 2.23 mM
Amount of generated ammonia [8]: 1.22 mM
Amount of generated ammonia (α-casein (Sigma)): 4.69 mM
Amount of generated ammonia (α-lactalbumin (Sigma)): 1.84 mM
released ammonia amount (0.68 U/ml enzyme solution) [9]: 1 mM
released ammonia amount (2.7 U/ml enzyme solution) [9]: 1.3 mM
